IntAct's records for PubMed 19942855

What follows are substances tested against spp_human HM13 (UniProt Q8TCT9).
Sequence of spp_human HM13 (Q8TCT9 whole entry): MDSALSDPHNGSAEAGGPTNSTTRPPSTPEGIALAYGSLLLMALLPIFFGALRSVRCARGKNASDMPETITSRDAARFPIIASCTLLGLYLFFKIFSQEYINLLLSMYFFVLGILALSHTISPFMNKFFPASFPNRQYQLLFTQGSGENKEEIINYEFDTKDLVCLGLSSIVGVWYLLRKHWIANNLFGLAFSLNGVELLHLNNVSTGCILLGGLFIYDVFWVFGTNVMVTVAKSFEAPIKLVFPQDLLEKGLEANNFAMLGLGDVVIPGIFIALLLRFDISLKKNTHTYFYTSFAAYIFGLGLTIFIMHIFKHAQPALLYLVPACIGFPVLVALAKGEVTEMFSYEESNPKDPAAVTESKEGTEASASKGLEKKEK

Sequence of Protein disulfide-isomerase (Homo sapiens), P07237 F275W (P07237 whole entry F275W): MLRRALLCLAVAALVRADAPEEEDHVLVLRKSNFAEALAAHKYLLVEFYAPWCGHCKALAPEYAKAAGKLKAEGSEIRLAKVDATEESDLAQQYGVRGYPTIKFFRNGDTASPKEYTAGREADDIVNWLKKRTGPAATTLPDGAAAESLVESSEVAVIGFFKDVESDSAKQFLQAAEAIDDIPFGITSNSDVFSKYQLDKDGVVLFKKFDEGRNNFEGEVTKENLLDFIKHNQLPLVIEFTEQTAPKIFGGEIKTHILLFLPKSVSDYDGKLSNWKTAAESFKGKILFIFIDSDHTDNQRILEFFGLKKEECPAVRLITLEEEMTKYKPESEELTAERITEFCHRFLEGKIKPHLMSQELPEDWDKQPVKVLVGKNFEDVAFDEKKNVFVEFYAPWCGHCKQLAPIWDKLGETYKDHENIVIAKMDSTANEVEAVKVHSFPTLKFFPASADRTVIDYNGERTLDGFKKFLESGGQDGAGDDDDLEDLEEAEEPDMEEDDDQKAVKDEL
Sequence of Protein disulfide-isomerase (Homo sapiens), P07237 C400S (P07237 whole entry C400S): as the sequence (P07237 whole entry F275W) above, with W275F, C400S counted along it
Sequence of Protein disulfide-isomerase (Homo sapiens), P07237 C397S (P07237 whole entry C397S): as the sequence (P07237 whole entry F275W) above, with W275F, C397S counted along it
Sequence of Protein disulfide-isomerase (Homo sapiens), P07237 C53S (P07237 whole entry C53S): as the sequence (P07237 whole entry F275W) above, with C53S, W275F counted along it
Sequence of Protein disulfide-isomerase (Homo sapiens), P07237 C56S (P07237 whole entry C56S): as the sequence (P07237 whole entry F275W) above, with C56S, W275F counted along it
Sequence of Protein disulfide-isomerase (Homo sapiens), P07237 I289A (P07237 whole entry I289A): as the sequence (P07237 whole entry F275W) above, with W275F, I289A counted along it

Substance	effect of a mutation on the interaction
Protein disulfide-isomerase (Homo sapiens), P07237 I289A	increasing interaction
Protein disulfide-isomerase (Homo sapiens), P07237 F275W	increasing interaction

Target: spp_human HM13 (UniProt Q8TCT9)
Remark: another data set of the same source

Substance	effect of a mutation on the interaction
Protein disulfide-isomerase (Homo sapiens), P07237 C53S	decreasing interaction
Protein disulfide-isomerase (Homo sapiens), P07237 C56S	decreasing interaction
Protein disulfide-isomerase (Homo sapiens), P07237 C400S	decreasing interaction
Protein disulfide-isomerase (Homo sapiens), P07237 C397S	decreasing interaction
